Laboratory results: patent US20230381316A1 (published 2023)

Assays:
[1] = target: T1, purified recombinant human PSMA protein (PSMA extracellular domain, baculovirus-insect cell expression) (UniProt Q04609 44-750); assay: SPR (Biacore); Bivalent fit
[2] = target: T1, purified recombinant human PSMA protein …; assay: SPR (Biacore)
[3] = target: T1, purified recombinant human PSMA protein …; assay: SPR (Biacore); Langmuir fit
PSMA = assay: previously reported; previously reported value

T1 sequence (Q04609 44-750): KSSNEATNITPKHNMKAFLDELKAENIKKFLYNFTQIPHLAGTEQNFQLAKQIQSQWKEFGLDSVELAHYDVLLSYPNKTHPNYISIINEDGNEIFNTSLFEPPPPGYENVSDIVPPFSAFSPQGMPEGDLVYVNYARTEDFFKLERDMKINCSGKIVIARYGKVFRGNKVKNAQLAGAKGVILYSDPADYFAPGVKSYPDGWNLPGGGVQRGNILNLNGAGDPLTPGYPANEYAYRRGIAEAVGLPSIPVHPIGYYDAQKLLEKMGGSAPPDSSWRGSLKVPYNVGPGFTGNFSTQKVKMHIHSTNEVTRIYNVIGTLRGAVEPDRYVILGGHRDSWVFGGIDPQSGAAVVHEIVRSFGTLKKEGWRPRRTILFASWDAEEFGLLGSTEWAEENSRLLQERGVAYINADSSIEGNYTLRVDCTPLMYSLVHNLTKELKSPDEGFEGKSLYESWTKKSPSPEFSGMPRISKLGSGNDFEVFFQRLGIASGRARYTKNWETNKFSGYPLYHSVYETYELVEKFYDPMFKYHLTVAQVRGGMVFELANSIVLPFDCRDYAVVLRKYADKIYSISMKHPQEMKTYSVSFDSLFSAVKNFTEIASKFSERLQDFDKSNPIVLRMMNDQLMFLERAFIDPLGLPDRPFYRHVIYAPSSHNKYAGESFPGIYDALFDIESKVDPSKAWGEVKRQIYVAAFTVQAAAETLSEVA

B1: ScFv Fc 446 (antibody, V domains shown)
VH: VKLQESGPGLVAPSQSLSITCTVSGFSLTDYGVSWIRQPPGKGLEWLGVIWSDGNTYYNSPLKSRLSINKDNSKSQVFLKMNSLQTDDSAMYYCARHKVYTMDYWGQGTSVTVSS
VL: TVLTQSPAIMSASPGEKVTMTCRASSSVSSSYLHWYQQKSSASPKLWIYRTSNLASGVPARFSGSGSGTSYSLTISSLEAEDAATYYCQQYSGYPLTFGAGTKLELKR
Kd [1]: 1160 nM

B2: anti-PSMA mouse monoclonal antibody #1207 (antibody, V domains shown)
VH: VKLQQSGPGLVKPSQSLSLTCAVTGYSITSDYAWNWIRKFPGNKLEWMGYISYSGRTTYNPSLESRISITRDTSKNQFFLQLNSVTTEDTATYYCARCYYGSSSRWYGMDYWGRGTSVAVSS
VL: IVLTQSPAIMSASPGVKVTMTCRASSSVDSSYLHWYQQKSGASPQVWIYSTSNLASGVPARFSGSGSGTSYSLTISSVEAEDAATYYCQQYSGYPLTFGGGTKLEIKR
Kd [1]: 8.13 nM
Kd [2]: 8.13 nM

B3: anti-PSMA mouse monoclonal antibody #1366 (antibody, V domains shown)
VH: VKLQESGPGLVAPSQSLSITCTVSGFSLTDYGVSWIRQPPGKGLEWLGVIWSDGNTYYNSPLKSRLSINKDNSKSQVFLKMNSLQTDDSAMYYCARHKVYTMDYWGQGTSVTVSS
VL: TVLTQSPAIMSASPGEKVTMTCRASSSVSSSYLHWYQQKSSASPKLWIYRTSNLASGVPARFSGSGSGTSYSLTISSLEAEDAATYYCQQYSGYPLTFGAGTKLELKR
Kd [1]: 295 nM
Kd [2]: 295 nM

B4: ScFv Fc 445 (antibody)
chain: VQLQQPGAALVRPGASVRLSCKASGYSFTYYWMNWVMQRPGQGLEWIGMIHPSDSETRLSQKFRDKATLTVDKSSSTVYMQLNSPTSDDSAVYYCARDGNFPYYALDYWGQGTSVTVSSGGGGSGGGGSGGGGSDVVLTQAPLSLPVSLGDQASISCRSSQSLEYSNGNTYLHWYLQKPGQSPELLIYTVSNRFSGVPDRFSGSGSGTDFTLKIHRVEAEDLGVYFCSQSTHVPTFGGGTKLEIKR
Kd [1]: 2.55 nM

B5: anti-PSMA mouse monoclonal antibody #1377 (antibody, V domains shown)
VH: VQLQQPGAALVRPGASVRLSCKASGYSFTYYWMNWVMQRPGQGLEWIGMIHPSDSETRLSQKFRDKATLTVDKSSSTVYMQLNSPTSDDSAVYYCARDGNFPYYALDYWGQGTSVTVSS
VL: DVVLTQAPLSLPVSLGDQASISCRSSQSLEYSNGNTYLHWYLQKPGQSPELLIYTVSNRFSGVPDRFSGSGSGTDFTLKIHRVEAEDLGVYFCSQSTHVPTFGGGTKLEIKR
Kd [1]: 18.6 nM
Kd [2]: 18.6 nM

B6: ScFv Fc 444 (antibody, V domains shown)
VH: VQLQQSGPELEKPGASVKMSCKASGYSFTGYNVNWVRQNNGKSLEWIGNIDPLHGGTTYNQKFKAKATLTVDRSSSTAYLQLKNLTSEDSAVYYCARSSRFDYWGQGTTLTVSS
VL: DIVMTQSHKFMSTSVGDRVNITCKASQDVGTAVAWYQQKPGQSPKLLIYWASTRHTGVPDRFTGSGSGTDFTLTISNVQSEDLADYFCHQFTSYPFTFGSGTSLEMKR
Kd [1]: 4.35 nM

B7: anti-PSMA mouse monoclonal antibody #1352 (antibody, V domains shown)
VH: VKLQQSGPELEKPGASVKISCKASGYSFTGYNVNWVKQSNGKSLEWIGNIDPYHGGTTYNQKFEAKATLTVDKSSSTAYMQLKSLTSEDSAVYYCARSSRFDYWGQGTTLTVSS
VL: DIVMTQSHKFMSTSVGDRVNITCKASQDVGTAVAWYQQKPGQSPKFLIYWASTRHTGVPDRFTGSGSGTDFTLTISNVQSEDLADYFCHQYTSYPFTFGSGTKLEMKR
Kd [1]: 1.99 nM
Kd [2]: 1.99 nM

B8: anti-PSMA mouse monoclonal antibody #219 (antibody, V domains shown)
VH: VQLQQSGPELEKPGASVKMSCKASGYSFTGYNVNWVRQNNGKSLEWIGNIDPLHGGTTYNQKFKAKATLTVDRSSSTAYLQLKNLTSEDSAVYYCARSSRFDYWGQGTTLTVSS
VL: DIVMTQSHKFMSTSVGDRVNITCKASQDVGTAVAWYQQKPGQSPKLLIYWASTRHTGVPDRFTGSGSGTDFTLTISNVQSEDLADYFCHQFTSYPFTFGSGTSLEMKR
Kd [3]: 2.64 nM
Kd [2]: 2.64 nM

B9: J591 (antibody, V domains shown)
VH: EVQLQQSGPELVKPGTSVRISCKTSGYTFTEYTIHWVKQSHGKSLEWIGNINPNNGGTTYNQKFEDKATLTVDKSSSTAYMELRSLTSEDSAVYYCAAGWNFDYWGQGTTLTVSS
VL: DIVMTQSHKFMSTSVGDRVSIICKASQDVGTAVDWYQQKPGQSPKLLIYWASTRHTGVPDRFTGSGSGTDFTLTITNVQSEDLADYFCQQYNSYPLTFGAGTMLDLK
Kd (PSMA): 1.83 nM
